T1: human glucose-dependent insulinotropic polypeptide (GIP) receptor (human, UniProt P48546 22-466)
T1 construct: whole, on cells; Assayed as crude membranes of stably transfected CHO cells; also called hGIPR; human GIP receptor
T1 sequence (looked up): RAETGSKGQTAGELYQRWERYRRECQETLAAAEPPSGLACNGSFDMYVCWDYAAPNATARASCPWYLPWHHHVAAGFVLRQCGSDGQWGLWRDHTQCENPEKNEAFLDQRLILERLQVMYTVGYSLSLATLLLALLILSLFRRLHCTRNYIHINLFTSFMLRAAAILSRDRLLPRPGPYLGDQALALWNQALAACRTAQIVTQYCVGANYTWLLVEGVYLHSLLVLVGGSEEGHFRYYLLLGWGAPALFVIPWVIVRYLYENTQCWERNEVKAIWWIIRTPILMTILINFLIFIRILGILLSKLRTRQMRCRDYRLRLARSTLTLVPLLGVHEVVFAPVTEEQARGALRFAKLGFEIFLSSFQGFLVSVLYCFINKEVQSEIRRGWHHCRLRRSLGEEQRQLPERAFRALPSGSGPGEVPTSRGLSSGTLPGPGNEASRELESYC

B1: Example 34 (peptide)
peptide: Y[Aib]EGT[αMePhe(2-F)]ISDYSIALDKK([AEEA-AEEA-γGlu-C20 diacid])HQ[Aib]EFVNYLLATGPSSGAPPPS-NH2
modifications: N-terminus assumed
SMILES: CC[C@H](C)[C@H](NC(=O)[C@H](CO)NC(=O)[C@H](Cc1ccc(O)cc1)NC(=O)[C@H](CC(=O)O)NC(=O)[C@H](CO)NC(=O)[C@@H](NC(=O)[C@](C)(Cc1ccccc1F)NC(=O)[C@@H](NC(=O)CNC(=O)[C@H](CCC(=O)O)NC(=O)C(C)(C)NC(=O)[C@@H](N)Cc1ccc(O)cc1)[C@@H](C)O)[C@@H](C)CC)C(=O)N[C@@H](C)C(=O)N[C@@H](CC(C)C)C(=O)N[C@@H](CC(=O)O)C(=O)N[C@@H](CCCCN)C(=O)N[C@@H](CCCCNC(=O)COCCOCCNC(=O)COCCOCCNC(=O)CC[C@H](NC(=O)CCCCCCCCCCCCCCCCCCC(=O)O)C(=O)O)C(=O)N[C@@H](Cc1c[nH]cn1)C(=O)N[C@@H](CCC(N)=O)C(=O)NC(C)(C)C(=O)N[C@@H](CCC(=O)O)C(=O)N[C@@H](Cc1ccccc1)C(=O)N[C@H](C(=O)N[C@@H](CC(N)=O)C(=O)N[C@@H](Cc1ccc(O)cc1)C(=O)N[C@@H](CC(C)C)C(=O)N[C@@H](CC(C)C)C(=O)N[C@@H](C)C(=O)N[C@H](C(=O)NCC(=O)N1CCC[C@H]1C(=O)N[C@@H](CO)C(=O)N[C@@H](CO)C(=O)NCC(=O)N[C@@H](C)C(=O)N1CCC[C@H]1C(=O)N1CCC[C@H]1C(=O)N1CCC[C@H]1C(=O)N[C@@H](CO)C(N)=O)[C@@H](C)O)C(C)C
B2: Example 26 (peptide)
peptide: Y[Aib]EGT[αMePhe(2-F)]ISDYSIALDKK([AEEA-AEEA-γGlu-C20 diacid])HQ[Aib]EFVNWLLAGGPSSGAPPPS-NH2
modifications: N-terminus assumed
SMILES: CC[C@H](C)[C@H](NC(=O)[C@H](CO)NC(=O)[C@H](Cc1ccc(O)cc1)NC(=O)[C@H](CC(=O)O)NC(=O)[C@H](CO)NC(=O)[C@@H](NC(=O)[C@](C)(Cc1ccccc1F)NC(=O)[C@@H](NC(=O)CNC(=O)[C@H](CCC(=O)O)NC(=O)C(C)(C)NC(=O)[C@@H](N)Cc1ccc(O)cc1)[C@@H](C)O)[C@@H](C)CC)C(=O)N[C@@H](C)C(=O)N[C@@H](CC(C)C)C(=O)N[C@@H](CC(=O)O)C(=O)N[C@@H](CCCCN)C(=O)N[C@@H](CCCCNC(=O)COCCOCCNC(=O)COCCOCCNC(=O)CC[C@H](NC(=O)CCCCCCCCCCCCCCCCCCC(=O)O)C(=O)O)C(=O)N[C@@H](Cc1c[nH]cn1)C(=O)N[C@@H](CCC(N)=O)C(=O)NC(C)(C)C(=O)N[C@@H](CCC(=O)O)C(=O)N[C@@H](Cc1ccccc1)C(=O)N[C@H](C(=O)N[C@@H](CC(N)=O)C(=O)N[C@@H](Cc1c[nH]c2ccccc12)C(=O)N[C@@H](CC(C)C)C(=O)N[C@@H](CC(C)C)C(=O)N[C@@H](C)C(=O)NCC(=O)NCC(=O)N1CCC[C@H]1C(=O)N[C@@H](CO)C(=O)N[C@@H](CO)C(=O)NCC(=O)N[C@@H](C)C(=O)N1CCC[C@H]1C(=O)N1CCC[C@H]1C(=O)N1CCC[C@H]1C(=O)N[C@@H](CO)C(N)=O)C(C)C
B3: Example 25 (peptide)
peptide: Y[Aib]EGT[αMeF]ISDYSIALDKK([AEEA-AEEA-γGlu-C20 diacid])HQ[Aib]EFVNWLLAGGPSSGAPPPS-NH2
modifications: N-terminus assumed
SMILES: CC[C@H](C)[C@H](NC(=O)[C@H](CO)NC(=O)[C@H](Cc1ccc(O)cc1)NC(=O)[C@H](CC(=O)O)NC(=O)[C@H](CO)NC(=O)[C@@H](NC(=O)[C@](C)(Cc1ccccc1)NC(=O)[C@@H](NC(=O)CNC(=O)[C@H](CCC(=O)O)NC(=O)C(C)(C)NC(=O)[C@@H](N)Cc1ccc(O)cc1)[C@@H](C)O)[C@@H](C)CC)C(=O)N[C@@H](C)C(=O)N[C@@H](CC(C)C)C(=O)N[C@@H](CC(=O)O)C(=O)N[C@@H](CCCCN)C(=O)N[C@@H](CCCCNC(=O)COCCOCCNC(=O)COCCOCCNC(=O)CC[C@H](NC(=O)CCCCCCCCCCCCCCCCCCC(=O)O)C(=O)O)C(=O)N[C@@H](Cc1c[nH]cn1)C(=O)N[C@@H](CCC(N)=O)C(=O)NC(C)(C)C(=O)N[C@@H](CCC(=O)O)C(=O)N[C@@H](Cc1ccccc1)C(=O)N[C@H](C(=O)N[C@@H](CC(N)=O)C(=O)N[C@@H](Cc1c[nH]c2ccccc12)C(=O)N[C@@H](CC(C)C)C(=O)N[C@@H](CC(C)C)C(=O)N[C@@H](C)C(=O)NCC(=O)NCC(=O)N1CCC[C@H]1C(=O)N[C@@H](CO)C(=O)N[C@@H](CO)C(=O)NCC(=O)N[C@@H](C)C(=O)N1CCC[C@H]1C(=O)N1CCC[C@H]1C(=O)N1CCC[C@H]1C(=O)N[C@@H](CO)C(N)=O)C(C)C
B4: Example 42 (peptide)
peptide: Y[Aib]EGT[αMeF]ISDYSIALDKK([AEEA-AEEA-γGlu-C20 diacid])HQ[Aib]DFVE[4Pal]LLEQGPSSGAPPPS-NH2
modifications: N-terminus assumed
SMILES: CC[C@H](C)[C@H](NC(=O)[C@H](CO)NC(=O)[C@H](Cc1ccc(O)cc1)NC(=O)[C@H](CC(=O)O)NC(=O)[C@H](CO)NC(=O)[C@@H](NC(=O)[C@](C)(Cc1ccccc1)NC(=O)[C@@H](NC(=O)CNC(=O)[C@H](CCC(=O)O)NC(=O)C(C)(C)NC(=O)[C@@H](N)Cc1ccc(O)cc1)[C@@H](C)O)[C@@H](C)CC)C(=O)N[C@@H](C)C(=O)N[C@@H](CC(C)C)C(=O)N[C@@H](CC(=O)O)C(=O)N[C@@H](CCCCN)C(=O)N[C@@H](CCCCNC(=O)COCCOCCNC(=O)COCCOCCNC(=O)CC[C@H](NC(=O)CCCCCCCCCCCCCCCCCCC(=O)O)C(=O)O)C(=O)N[C@@H](Cc1c[nH]cn1)C(=O)N[C@@H](CCC(N)=O)C(=O)NC(C)(C)C(=O)N[C@@H](CC(=O)O)C(=O)N[C@@H](Cc1ccccc1)C(=O)N[C@H](C(=O)N[C@@H](CCC(=O)O)C(=O)N[C@@H](Cc1ccncc1)C(=O)N[C@@H](CC(C)C)C(=O)N[C@@H](CC(C)C)C(=O)N[C@@H](CCC(=O)O)C(=O)N[C@@H](CCC(N)=O)C(=O)NCC(=O)N1CCC[C@H]1C(=O)N[C@@H](CO)C(=O)N[C@@H](CO)C(=O)NCC(=O)N[C@@H](C)C(=O)N1CCC[C@H]1C(=O)N1CCC[C@H]1C(=O)N1CCC[C@H]1C(=O)N[C@@H](CO)C(N)=O)C(C)C
B5: Example 43 (peptide)
peptide: Y[Aib]EGT[αMeF]ISDYSIALDKK([AEEA-AEEA-γGlu-C20 diacid])HQ[Aib]DFVE[4Pal]LLEAGPSSGAPPPS-NH2
modifications: N-terminus assumed
SMILES: CC[C@H](C)[C@H](NC(=O)[C@H](CO)NC(=O)[C@H](Cc1ccc(O)cc1)NC(=O)[C@H](CC(=O)O)NC(=O)[C@H](CO)NC(=O)[C@@H](NC(=O)[C@](C)(Cc1ccccc1)NC(=O)[C@@H](NC(=O)CNC(=O)[C@H](CCC(=O)O)NC(=O)C(C)(C)NC(=O)[C@@H](N)Cc1ccc(O)cc1)[C@@H](C)O)[C@@H](C)CC)C(=O)N[C@@H](C)C(=O)N[C@@H](CC(C)C)C(=O)N[C@@H](CC(=O)O)C(=O)N[C@@H](CCCCN)C(=O)N[C@@H](CCCCNC(=O)COCCOCCNC(=O)COCCOCCNC(=O)CC[C@H](NC(=O)CCCCCCCCCCCCCCCCCCC(=O)O)C(=O)O)C(=O)N[C@@H](Cc1c[nH]cn1)C(=O)N[C@@H](CCC(N)=O)C(=O)NC(C)(C)C(=O)N[C@@H](CC(=O)O)C(=O)N[C@@H](Cc1ccccc1)C(=O)N[C@H](C(=O)N[C@@H](CCC(=O)O)C(=O)N[C@@H](Cc1ccncc1)C(=O)N[C@@H](CC(C)C)C(=O)N[C@@H](CC(C)C)C(=O)N[C@@H](CCC(=O)O)C(=O)N[C@@H](C)C(=O)NCC(=O)N1CCC[C@H]1C(=O)N[C@@H](CO)C(=O)N[C@@H](CO)C(=O)NCC(=O)N[C@@H](C)C(=O)N1CCC[C@H]1C(=O)N1CCC[C@H]1C(=O)N1CCC[C@H]1C(=O)N[C@@H](CO)C(N)=O)C(C)C

In general, Ki refers to the dissociation constant of the complex between target and ligand, obtained from inhibition or displacement.

Starred links: 1 amine or outer side, 2 acyl side, 3 side chain; linkers in the order of their positions; H or OH if unused. Non-standard residues stand in square brackets, D forms with d. Groups on a side chain read outwards from the residue. No end group written: not given here. *: point of attachment. C20 diacid = O=C(O)CCCCCCCCCCCCCCCCCCC(=O)*; αMePhe(2-F) = C[C@](N)(Cc1ccccc1F)C(=O)O; γGlu = O=C(O)[C@H](CCC(=O)[*:2])N[*:1]; αMeF = C[C@](N)(Cc1ccccc1)C(=O)O; 4Pal = N[C@@H](Cc1ccncc1)C(=O)O; AEEA = NCCOCCOCC(=O)O; Aib = CC(C)(N)C(=O)O

T2 sequence (P47871 26-477): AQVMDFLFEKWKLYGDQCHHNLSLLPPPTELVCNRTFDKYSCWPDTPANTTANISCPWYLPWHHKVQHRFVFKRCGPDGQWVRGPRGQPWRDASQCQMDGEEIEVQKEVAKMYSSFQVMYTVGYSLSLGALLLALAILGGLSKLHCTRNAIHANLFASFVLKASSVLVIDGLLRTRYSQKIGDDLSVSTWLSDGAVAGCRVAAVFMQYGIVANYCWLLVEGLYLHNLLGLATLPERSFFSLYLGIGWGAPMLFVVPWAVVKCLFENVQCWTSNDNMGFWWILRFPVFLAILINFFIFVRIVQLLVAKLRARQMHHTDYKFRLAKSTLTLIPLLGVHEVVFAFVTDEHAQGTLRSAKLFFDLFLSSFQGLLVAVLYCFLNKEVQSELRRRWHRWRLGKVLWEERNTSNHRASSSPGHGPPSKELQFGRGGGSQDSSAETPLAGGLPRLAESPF

In one experiment the target is T1, human glucose-dependent insulinotropic …. Put plainly: SPA, displacement of [125I]-GIP from hGIPR membranes, 0.1% bacitracin. On the technique in general: Displacement assays read how much labelled ligand stays bound in the presence of the test substance.
On to B1, for which the affinity, expressed as Ki, was 0.034 nM.

For the molecule B2, the affinity, expressed as Ki, was 0.045 nM.

Take B3: the inhibition constant (Ki) turned out to be 0.0417 nM.

Turning to B4, the affinity, expressed as Ki, was 0.0392 nM.

As to B5, the Ki was 0.0366 nM.

The next experiment addresses T2, human glucagon receptor (human, UniProt P47871 26-477).
T2 construct: whole, on cells; Assayed as crude membranes of stably transfected HEK293 cells; also called hGcgR; GcgR
Put plainly: SPA, displacement of [125I]-Gcg from hGcgR membranes, 0.1% bacitracin. Summed up:
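Binding buffer: 25 mM HEPES pH 7.4, 2.5 mM CaCl₂, 1 mM MgCl₂, 0.003% Tween-20, protease inhibitors without EDTA. Counted by scintillation after 12 h incubation/settling at room temperature. Four-parameter nonlinear fit; Kᵢ given as geometric mean ± SEM of independent replicates run on different days.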
Consider B1, for which the Ki was determined as 143 nM.

In turn, B2 showed an inhibition constant (Ki) of 74.1 nM.

Turning to B3, the affinity corresponds to a Ki of 101 nM.

In the case of B4, the inhibition constant Ki amounted to 99.1 nM.

B5 registered an inhibition constant (Ki) of 285 nM.

In a further experiment the target is T3, human GLP-1 receptor (human, UniProt P43220 24-463).
T3 construct: whole, on cells; Assayed as crude membranes of stably transfected HEK293 cells; also called hGLP1R; hGLP-1R
Put plainly: SPA, displacement of [125I]-GLP-1 from hGLP-1R membranes, 0.1% bacitracin. Put shortly:
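Binding buffer: 25 mM HEPES pH 7.4, 2.5 mM CaCl₂, 1 mM MgCl₂, 0.1% bacitracin, 0.003% Tween-20, protease inhibitors without EDTA. Four-parameter nonlinear regression; Kᵢ given as geometric mean ± SEM, n = independent replicates run on different days.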
For B1, the affinity corresponds to a Ki of 201 nM.

On to B2, for which the affinity, expressed as Ki, was 16.5 nM.

B3 had an inhibition constant Ki of 15.8 nM.

Regarding B4, the Ki came out at 563 nM.

Molecule B5 returned an inhibition constant Ki of 605 nM.
